Experimental data from US20160032278A1.

Tests used:
[1] = target: papain (UniProt P00784); assay: SPR, cystatin immobilised on NTA chip via His tag, papain in solution
[2] = target: papain (UniProt P00784); assay: cell-based or functional assay
[3] = target: papain (UniProt P00784); assay: SPR; text value differs from Table 3 (4.7 × 10^-9)

Chain of papain (P00784 134-345 limits assumed): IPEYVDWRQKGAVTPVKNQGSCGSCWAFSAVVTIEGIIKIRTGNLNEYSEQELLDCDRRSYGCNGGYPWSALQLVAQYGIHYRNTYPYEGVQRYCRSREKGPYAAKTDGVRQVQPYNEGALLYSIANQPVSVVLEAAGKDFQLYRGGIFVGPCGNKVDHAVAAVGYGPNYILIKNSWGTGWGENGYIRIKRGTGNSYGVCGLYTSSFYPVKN

Substance | Ka [1] [M⁻¹] | Kd [1] [nM] | koff [1] [s⁻¹] | kon [1] [M⁻¹ s⁻¹] | IC50, papain inhibition (substrate pGlu-Phe-Leu-p-nitroanilide) [2] [M] | Kd [3] [nM]
CPA (papaya cystatin, Carcia papaya) | 5e+07 | 20 | 0.0052 | 260000 |  | 
CUN (satsuma orange cystatin, Citrus unshiu) | 7.3e+07 | 14 | 0.0035 | 260000 |  | 
OSA-IΔD86 (modified oryzacystatin I lacking residue Asp86) (from UniProt P09229 39-140) | 2.1e+08 | 4.7 | 0.0012 | 260000 | 1.8e-07 | 47
